Experimental data taken from patent publication US20200282010A1, “IMMUNOGENIC COMPOSITIONS AND USES THEREFOR” (Epiaxis Therapeutics Pty Ltd, priority 2017, published 2020).

Experiments:
[1] = target: T1, PKC-θ (T538p) (Homo sapiens, UniProt Q04759); experiment: Nuclear localization of PKC-θ (Fn/c, immunofluorescence) in cells treated with peptide inhibitor; format: cell-based; conditions: MCF7 breast cancer cell line; FIG. 1D
T1 construct: endogenous in cells; host or cells: MCF7
Text: (§1) FIG. 1 is a graphical, schematic and photographic representation showing that PKC-θ can be targeted for therapeutic intervention. A) Depicts the strength of binding of recombinant purified His6-PKC-θ to increasing concentrations of different subunits and subunit combinations (α2, α2β1, and β1) of the importin α/β heterodimer nuclear transport receptor using an AlphaScreen® binding assay as described in Wagstaff et al. (2011. Journal of Biomolecular Screening 16 (2):192-200). B-C) Depicts protein structure of PKC-θ indicating binding locations for the PKC-θ peptide inhibitor, PKCθi (RKEIDPPFRPKVK), including the nuclear localization sequence (NLS) of PKC-θ. D) The specificity of PKCθi was examined on cells treated with this peptide inhibitor. Cells were screened with primary antibodies to PKC-θ (T538p), PKC-β2, PKC-β1, PKC-α, PKC-ε and PKC-γ. The nuclear to cytoplasmic fluorescence ratio (Fn/c) using the equation: Fn/c=(Fn−Fb)/(Fc−Fb), where Fn is nuclear fluorescence, Fc is cytoplasmic fluorescence, and Fb is background fluorescence was used to determine the impact on nuclear translocation/localization. […] EC^50 of inhibitors calculated using GraphPad PRISM software. F) The PKC-θ kinase activity was measured using the PKC kinase activity kit from ENZO life sciences and recombinant PKC-θ; C27 is an inhibitor of PKC-θ kinase activity, which is disclosed in Jimenez et al. (2013. […]

[2] = target: T2, PKC-γ (Homo sapiens, UniProt P05129); experiment: Nuclear localization of PKC-γ (Fn/c, immunofluorescence), specificity; format: cell-based; conditions: MCF7 breast cancer cell line; FIG. 1D
T2 construct: endogenous in cells; host or cells: MCF7
Text: as §1

[3] = test system: MCF7 cells; experiment: Cell proliferation (WST-1 assay); format: cell-based; conditions: FIG. 1E
Text: as §1

[4] = target: recombinant PKC-θ (Homo sapiens, UniProt Q04759); experiment: PKC-θ kinase activity (PKC kinase activity kit, ENZO life sciences); format: biochemical; conditions: FIG. 1F
Text: as §1

[5] = test system: CD8^+ T-cells isolated from melanoma patient's bloods; experiment: Immunofluorescence of IFN-γ and TNF-α in patient CD8+ T-cells; format: cell-based, human; conditions: across all samples, particularly the stimulated samples; inhibitor 8 μm; FIG. 3
Protocol: FIG. 3 is a photographic representation depicting a PKC-θ resistance signature in CD8^+ T-cells. A-B) CD8s were isolated from melanoma patient liquid biopsies (CR=complete response, SD=Stable Disease, PD=progression of disease) and were stimulated with PMA/CI and pre-clinically screened with either vehicle control or PKCθi nuclear peptide inhibitor. Samples were fixed and immunofluorescence microscopy was performed on these cells with primary antibodies for ZEB1, PKC-θ, and CD8. Representative images for each dataset are shown. Graph represents the TNFI for PKC-Theta and TNFI for ZEB1 measured using ImageJ to select the nucleus minus background (n=>20 cells/sample). […] Graph represents the TNFI for TNF-α and TNFI for IFN-γ measured using ImageJ to select the nucleus minus background (n=>20 cells/sample). […]
Metastatic melanoma biopsies were pre-enriched using the RosetteSep™ method to isolate CTCs by employing the RosetteSep™ Human CD45 Depletion Kit (15162, Stemcell Technologies) to remove CD45+ cells and red blood cells, using density gradient centrifugation with SepMate™-50 (IVD) density gradient tubes (85450, Stemcell Technologies) and Lymphoprep™ density gradient medium (07861, Stemcell Technologies). […] Digital images were analysed using ImageJ software (ImageJ, NIH, Bethesda, Md., USA) to determine TNFI, TCFI or TFI. […]

recombinant PKC-θ, sequence (Q04759 whole entry): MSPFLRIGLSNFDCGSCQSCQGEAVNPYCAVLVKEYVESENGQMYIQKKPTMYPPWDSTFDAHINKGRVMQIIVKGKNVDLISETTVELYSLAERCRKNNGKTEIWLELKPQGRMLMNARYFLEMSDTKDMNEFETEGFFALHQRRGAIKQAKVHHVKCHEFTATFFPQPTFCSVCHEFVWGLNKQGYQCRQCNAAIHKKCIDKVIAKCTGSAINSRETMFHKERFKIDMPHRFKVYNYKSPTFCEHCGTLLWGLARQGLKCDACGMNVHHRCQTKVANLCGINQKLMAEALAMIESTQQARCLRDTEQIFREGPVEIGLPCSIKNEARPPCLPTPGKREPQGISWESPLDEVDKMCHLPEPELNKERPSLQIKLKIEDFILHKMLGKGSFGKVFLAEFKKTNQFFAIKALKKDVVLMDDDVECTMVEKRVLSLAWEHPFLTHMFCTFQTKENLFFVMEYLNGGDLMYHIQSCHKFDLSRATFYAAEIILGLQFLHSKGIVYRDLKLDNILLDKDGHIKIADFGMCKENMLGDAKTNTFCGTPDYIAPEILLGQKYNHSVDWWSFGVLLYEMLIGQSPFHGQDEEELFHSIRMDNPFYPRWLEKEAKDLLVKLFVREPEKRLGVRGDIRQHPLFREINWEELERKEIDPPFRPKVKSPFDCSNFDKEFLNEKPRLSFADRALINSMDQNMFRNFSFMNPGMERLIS
T1 sequence (Q04759 whole entry): as above

RKEIDPPFRPKVK [PKCθi]
nuclear localization of PKC-θ [1]: markedly inhibit
nuclear localization of PKC-γ [2]: no effect
proliferation of MCF7 cells [3]: significantly inhibit
PKC-θ catalytic activity [4]: without impacting
expression of IFN-γ [5]: significant increase
expression of TNF-α [5]: significant increase
